Measured values: US20260191954A1, “COMPOSITIONS AND METHODS FOR NEOADJUVANT TREATMENT IN CANCER” (INNATE PHARMA, priority 2022, published 2026)
“Also recorded” adds a separate entry of the source.

Tests used:
[1] = molecular target: T1, human CD39, membrane-bound, as expressed on cells (human, UniProt P49961 1-510); test: indirect response PD model (inhibition on Kin) fitted to free mCD39 on monocytes of treated patients; flow cytometry, free CD39 detected with a labelled antibody having the VH and VL of IPH5201
T1 construct: On OAW42 cells, on monocytes and B cells of patients, in patients' tumour tissue, and in tissues of human CD39 knock-in mice; also called mCD39
T1 sequence: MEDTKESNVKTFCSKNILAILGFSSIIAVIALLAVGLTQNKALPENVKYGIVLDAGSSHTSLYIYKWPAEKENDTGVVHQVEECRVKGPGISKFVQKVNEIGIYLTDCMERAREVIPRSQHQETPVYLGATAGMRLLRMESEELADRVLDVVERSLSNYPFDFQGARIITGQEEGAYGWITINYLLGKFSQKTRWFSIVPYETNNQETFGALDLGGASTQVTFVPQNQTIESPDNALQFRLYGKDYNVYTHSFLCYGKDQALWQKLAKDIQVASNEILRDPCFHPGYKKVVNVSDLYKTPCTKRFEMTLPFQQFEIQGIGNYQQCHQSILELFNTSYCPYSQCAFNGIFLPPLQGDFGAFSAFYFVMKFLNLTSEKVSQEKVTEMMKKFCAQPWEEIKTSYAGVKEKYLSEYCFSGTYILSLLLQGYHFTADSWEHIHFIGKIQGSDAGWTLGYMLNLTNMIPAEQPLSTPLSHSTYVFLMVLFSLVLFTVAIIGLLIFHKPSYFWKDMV
Description: PK/PD modelling and simulation were used to guide selection of doses. IPH5201 PK data from 45 patients and PD data of free membrane CD39 (mCD39) occupancy on monocytes from 43 patients were available. A population PK model was developed with IPH5201 PK best described as a 2-compartment model with parallel linear and saturatable kinetics.
An indirect response PD model (inhibition on Kᵢₙ) was then built to describe the relationship between IPH5201 concentrations and free mCD39 on monocytes (FIG. 10). The model accurately predicted CD39free+ of monocytes (%). […] The final indirect response model was then used for parametric simulation.
To assess free CD39 on monocytes and B cells, blood samples are spiked with an antibody having the VH and VL of IPH5201 and a mouse Fc domain and labelled with a fluorochrome. A second non-competing anti-CD39 monoclonal antibody labelled with a distinct fluorochrome is used to bind to a site on CD39 distinct from the capture antibody. CD14, CD19 and CD45 are detected by incubation with anti-CD14, CD19 and CD45 monoclonal antibodies each labelled with a distinct fluorochrome. Binding is detected by flow cytometry.

CD39 enzymatic activity = molecular target: T2, CD39 enzymatic activity (Homo sapiens, UniProt P49961); test: Wachstein-Meisel CD39 enzyme assay on tissues of treated mice; format: in vivo, huCD39KI mice; conditions: tissues from molPH5201-treated animals; brown color indicates enzyme activity
T2 construct: genetically modified to express human CD39 in place of its murine counterpart mouse CD39; from tissue; host or cells: tissues (MCA205 tumours) of huCD39KI mice treated with moIPH5201
T2 sequence (P49961 1-510): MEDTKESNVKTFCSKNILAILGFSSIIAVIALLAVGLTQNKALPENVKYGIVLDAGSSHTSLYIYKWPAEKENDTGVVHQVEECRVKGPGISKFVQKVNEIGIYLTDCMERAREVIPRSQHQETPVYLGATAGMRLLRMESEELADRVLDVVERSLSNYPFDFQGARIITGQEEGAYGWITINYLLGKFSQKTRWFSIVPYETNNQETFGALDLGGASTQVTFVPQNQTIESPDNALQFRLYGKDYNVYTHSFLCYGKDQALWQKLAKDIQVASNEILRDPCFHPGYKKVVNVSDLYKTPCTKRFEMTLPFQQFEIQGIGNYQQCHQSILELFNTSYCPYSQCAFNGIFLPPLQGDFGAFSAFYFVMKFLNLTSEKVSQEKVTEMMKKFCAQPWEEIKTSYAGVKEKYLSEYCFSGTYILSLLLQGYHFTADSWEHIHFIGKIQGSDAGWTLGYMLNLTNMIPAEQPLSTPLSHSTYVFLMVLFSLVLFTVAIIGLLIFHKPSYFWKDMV
Protocol: (§1) Human CD39 expression on MCA205 tumors harvested on day 16 post engraftment was evaluated by IHC with EPR20627 clone from Abcam B&C. MCA205 tumors were engrafted in huCD39KI mice. On day 7 and 14 post tumor implantation, they were treated with molPH5201 (20 mg/kg) or isotype control. On day 16, tumors were harvested. Results are shown in FIG. 4, left hand panel, showing that a significant percentage of cells express CD39.
Blockade of CD39 enzymatic activity was determined using the Wachstein-Meisel CD39 enzyme assay (brown color indicates enzyme activity).

MC38 cancer cell line = test: MC38 tumor growth in huCD39KI mice (gemcitabine +/- anti-PD-L1 +/- molPH5201); format: in vivo, human CD39 knock-in (huCD39KI) mice
Protocol: In vivo experiments were performed in human CD39 knock-in (huCD39KI) mice, genetically modified to express human CD39 in place of its murine counterpart mouse CD39. These mice were sub-cutaneously (s.c.) engrafted with the MC38 cancer cell line. Mice bearing established tumors were dosed with isotype control (IC) antibodies, anti-human CD39 antibody (molPH5201, described above), gemcitabine chemotherapy and anti-mouse PD-L1 antibody (an antibody that binds murine PD-L1 having an Fc domain with amino acid substitutions to eliminate binding to mouse Fcγ receptors.
Male and female huCD39KI mice were engrafted subcutaneously (s.c.) with 1×10^6 MC38 cancer cells. Treatments were initiated after mouse randomization. Mice were treated twice a week for two weeks with gemcitabine (25 mg/kg) or PBS (at day 8, 11, 15 and 18 after cell engraftment) and once a week for four weeks with either anti-human CD39 antibody (molPH5201) or the corresponding isotype control (IC) antibody (400 μg/mouse).
Randomization of mice into four groups was performed on day 7 post tumor cell engraftment, at a mean tumor volume of 72 mm^3±27 mm^3 with individual tumor volumes comprised between 37 and 130 mm^3.
(§2) Male and female huCD39KI mice were engrafted s.c. with 1×10^6 MC38. Treatments were initiated after mouse randomization. Mice were treated twice a week for two weeks with gemcitabine (25 mg/kg) or PBS, twice a week for three weeks with either anti-mouse PD-L1 antibody or the corresponding IC antibody (200 μg/mouse) and once a week for four or five weeks depending on the experiment with either anti-human CD39 antibody (molPH5201) or the corresponding IC antibody (400 μg/mouse). Mouse randomization into five groups was performed on day 7 post tumor cell engraftment at a mean tumor volume of 62 mm^3±23 mm^3 with individual tumor volumes comprised between 31 and 117 mm^3.
as §2, with “As in Experiment 1, male” for “Male”, “64” for “62”, “115” for “117”
as §2, with “As in Experiments 1 and 2, male” for “Male”, “engraftment,” for “engraftment”, “74 mm^3±21” for “62 mm^3±23”, “40” for “31”, “121” for “117”
The three experiments were pooled and results are shown in FIG. 9, showing Tumor growth of MC38 tumor in huCD39KI mice post treatment with gemcitabine+/−anti-PD-L1+/−molPH5201. MC38 tumor-bearing huCD39KI mice were randomized on day 7 and then treated as indicated with 25 mg/kg ip of gemcitabine or PBS, 200 μg ip of anti-mouse PD-L1 antibody or corresponding isotype control antibody and with 400 μg iv of molPH5201 or corresponding IC antibody. Graphs show tumor growth in each individual (n=31/group). CR: Complete Response.

[2] = tested on: adenosine in MCA205 tumors; test: Intratumoral adenosine in MCA205 tumors in huCD39KI mice (LC-MS/MS); format: in vivo, human CD39 knock-in (huCD39KI) mice; conditions: molPH5201 20 mg/kg on day 7 and 14; tumors harvested day 16; vs isotype control; FIG. 4
Protocol: Expression of human CD39 in MCA205 tumors engrafted in human CD39 knock-in (huCD39KI) mice was assessed, followed by measure of intratumoral levels of adenosine after in vivo treatment with molPH5201, an antibody having the VH and VL or SEQ ID NO NOS: 8 and 9 and murine constant domains including an Fc domain with amino acid substitutions to eliminate binding to mouse Fcγ receptors, in order to evaluate the reduction of adenosine levels in tumors by molPH5201 can reduce in vivo.
as §1
Quantification of adenosine in the harvested MCA205 tumors was performed using pre-column derivatization and liquid chromatography-mass spectrometry (LC-MS/MS) as described by Goodwin et al. 2019 Anal Biochem 568:78-88.

Molecule | IC50 [1] | CD39 enzymatic activity in tissues (CD39 enzymatic activity) | number of complete response when combined with gemcitabine, in comparison to gemcitabine alone (MC38 cancer cell line; Experiment 1 (FIG. 6)) | improvement of anti-tumor effect over the comparator named in the value (MC38 cancer cell line; Experiment 1 (FIG. 6), triple vs gemcitabine alone p<0.05 when control group was excluded) | improvement of anti-tumor efficacy over the comparator named in the value (MC38 cancer cell line; Experiment 2 (FIG. 7), difference marginally significant, p<0.1, control group excluded) | number of complete response (CR) on combination (MC38 cancer cell line; Experiment 3 (FIG. 8)) | improvement of anti-tumor effect over the comparator named in the value (MC38 cancer cell line; Experiment 3 (FIG. 8), triple vs gemcitabine alone marginally significant p<0.1, control group excluded) | improvement of the anti-tumor efficacy of gemcitabine (MC38 cancer cell line; gemcitabine +/- molPH5201 experiment (FIG. 5)) | tumor growth compared to the control group (MC38 cancer cell line; gemcitabine +/- molPH5201 experiment (FIG. 5), gemcitabine 25 mg/kg, molPH5201 400 μg/mouse, p<0.001 where significant) | improvement of anti-tumor efficacy over the comparator named in the value (MC38 cancer cell line; pooled analysis of three experiments (FIG. 9), n=31/group, p<0.05 where improved, linear-mixed effect model) | intratumoral adenosine compared to control [2]
IPH5201 (humanized anti-CD39 antibody having the respective heavy and light chain amino acid sequences of SEQ ID NOS: 10 and 11) (antibody, human IgG1, kappa, V domains shown) VH: QVQLVQSGAEVKKPGASVKVSCKASGYTFTDYNMHWVRQAPGQRLEWIGYIVPLNGGSTFNQKFKGRATITVDTSARTAYMELSSLRSEDTAVYYCARGGTRFAYWGQGTLVTVSS VL: DIVMTQSPDSLAVSLGERATINCRASESVDNFGVSFMYWFQQKPGQPPKLLIYGASNQGSGVPDRFSGSGSGTDFTLTISSLQAEDVAVYYCQQTKEVPYTFGGGTKVEIKR | 2.44 µg/mL |  |  |  |  |  |  |  |  |  | 
molPH5201: antibody having the VH and VL of SEQ ID NOS: 8 and 9 and murine constant domains, Fc substituted to eliminate mouse Fcγ receptor binding (antibody, V domains shown, murine constant domains, Fc-silenced) VH: QVQLVQSGAEVKKPGASVKVSCKASGYTFTDYNMHWVRQAPGQRLEWIGYIVPLNGGSTFNQKFKGRATITVDTSARTAYMELSSLRSEDTAVYYCARGGTRFAYWGQGTLVTVSS VL: DIVMTQSPDSLAVSLGERATINCRASESVDNFGVSFMYWFQQKPGQPPKLLIYGASNQGSGVPDRFSGSGSGTDFTLTISSLQAEDVAVYYCQQTKEVPYTFGGGTKVEIK |  | decreased CD39 enzymatic activity | increased the number of complete response | Neither anti-PD-L1 nor molPH5201 improved the anti-tumor effect of gemcitabine; also recorded: did not statistically significantly improve gemcitabine+anti-PD-L1 efficacy | tended to improve the anti-tumor efficacy of the combination gemcitabine+anti-PD-L1 | did not increase the number of CR | Neither anti-PD-L1 nor molPH5201 improved the anti-tumor effect of gemcitabine; also recorded: did not statistically significantly improve gemcitabine+anti-PD-L1 efficacy | did not improve the anti-tumor efficacy of gemcitabine | did not modify tumor growth | neither anti-PD-L1 nor molPH5201 improved the anti-tumor effect of gemcitabine; also recorded: improved the anti-tumor efficacy of the gemcitabine+anti-PD-L1 combination | less intratumoral adenosine
